Data taken from PMC2715281 (Nature structural & molecular biology, 2009).
Like-named read-outs stand apart in the source and are kept apart here.

What was measured:
[1] = molecular target: T1, RAG1 NBD (mouse (murine), UniProt P15919 389-464); assay: crystal structure
T1 sequence: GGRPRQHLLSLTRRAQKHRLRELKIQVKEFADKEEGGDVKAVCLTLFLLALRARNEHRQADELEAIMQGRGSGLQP

[2] = molecular target: the molecule itself; assay: SEC + SEC-MALS
[3] = molecular target: T1, RAG1 NBD; assay: crystal structure; remark: listed apart in the source
[4] = molecular target: T2, MBP-RAG1 core WT;GST-RAG2 core (mouse (murine);mouse (murine), UniProt P15919;P21784 384-1008;1-383, |); assay: EMSA
T2 sequence 1: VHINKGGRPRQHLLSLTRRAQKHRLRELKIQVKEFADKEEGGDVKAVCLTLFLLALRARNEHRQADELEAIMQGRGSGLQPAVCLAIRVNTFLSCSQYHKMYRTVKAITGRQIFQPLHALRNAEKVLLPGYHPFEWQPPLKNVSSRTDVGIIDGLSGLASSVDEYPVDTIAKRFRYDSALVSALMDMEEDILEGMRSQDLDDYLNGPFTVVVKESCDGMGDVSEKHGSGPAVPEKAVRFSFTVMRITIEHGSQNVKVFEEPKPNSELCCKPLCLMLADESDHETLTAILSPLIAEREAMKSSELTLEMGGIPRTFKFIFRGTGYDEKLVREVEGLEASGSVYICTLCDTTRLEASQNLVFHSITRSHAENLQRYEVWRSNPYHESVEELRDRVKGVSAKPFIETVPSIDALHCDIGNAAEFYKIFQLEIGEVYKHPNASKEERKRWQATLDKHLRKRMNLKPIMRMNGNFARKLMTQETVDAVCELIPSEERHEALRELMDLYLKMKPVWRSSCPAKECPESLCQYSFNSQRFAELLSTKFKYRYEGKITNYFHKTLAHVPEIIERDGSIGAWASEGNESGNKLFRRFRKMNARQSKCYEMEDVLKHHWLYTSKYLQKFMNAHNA
T2 sequence 2: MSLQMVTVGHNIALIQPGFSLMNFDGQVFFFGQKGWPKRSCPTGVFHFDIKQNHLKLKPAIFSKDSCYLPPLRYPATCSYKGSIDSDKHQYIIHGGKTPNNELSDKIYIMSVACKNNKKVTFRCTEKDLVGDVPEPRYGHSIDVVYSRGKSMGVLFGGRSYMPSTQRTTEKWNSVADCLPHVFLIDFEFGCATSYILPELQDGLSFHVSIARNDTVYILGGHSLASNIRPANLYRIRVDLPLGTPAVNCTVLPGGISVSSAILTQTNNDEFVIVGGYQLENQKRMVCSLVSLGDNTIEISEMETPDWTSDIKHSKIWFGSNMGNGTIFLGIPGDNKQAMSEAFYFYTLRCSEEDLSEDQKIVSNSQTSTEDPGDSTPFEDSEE

[5] = molecular target: MBP-RAG1 core WT;GST-RAG2 core;His-HMGB1 (mouse (murine);mouse (murine);human, UniProt P15919;P21784;P09429 384-1008;1-383;1-215, ||); assay: EMSA
Chain of MBP-RAG1 core WT;GST-RAG2 core;His-HMGB1 (P09429 whole entry, one chain of several): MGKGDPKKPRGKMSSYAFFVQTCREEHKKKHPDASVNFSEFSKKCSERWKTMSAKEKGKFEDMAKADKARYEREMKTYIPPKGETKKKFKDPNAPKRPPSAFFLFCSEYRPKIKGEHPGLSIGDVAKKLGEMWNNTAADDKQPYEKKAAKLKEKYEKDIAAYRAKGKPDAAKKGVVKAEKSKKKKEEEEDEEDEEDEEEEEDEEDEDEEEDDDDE

B1: 56DNA crystal 14-mer (symmetrized) (dsDNA)
DNA 1: AGTTTTCAGAAACC
DNA 2: AGGTTTCTGAAAAC
[1]
  binding result: binds

B2: His6-tagged RAG1 nonamer-binding domain (murine RAG1 residues 389-464) (domain or fragment, UniProt P15919 389-464, looked up)
chain: T1 sequence
[2]
  stoichiometry N: 2

B3: Native crystal 14-mer (nonamer plus 4 bp of 12RSS spacer) (dsDNA)
DNA 1: ACTTAACAAAAACC
DNA 2: TGGTTTTTGTTAAG
[3]
  binding result: binds

B4: Consensus 12RSS (dsDNA)
DNA 1: GATCTGGCCTGTCTTACACAGTGATACAGACCTTAACAAAAACCTGCACTCGAGCGGAG
DNA 2: CTCCGCTCGAGTGCAGGTTTTTGTTAAGGTCTGTATCACTGTGTAAGACAGGCCAGATC
[4]
  binding signal: 1 relative to WT
[5]
  binding result: binds
